Assay results reported in PMC9823235 (The Journal of Biological Chemistry, 2022).

Target: the molecule itself
Test: cryo-EM structure

B1: B subunit of Stx2a ([change]), pentameric (natural protein)
chain: ADCAKGKIEFSKYNEDDTFTVKVDGKEYWTSRWNLQPLLQSAQLTGMTVTIKSSTCESGSGFAEVQFNND
stoichiometry N: 5
